Laboratory results published in patent publication US20060052286A1, “Factor VII conjugates for selectively treating neovascularization disorders” (Yale University, priority 2004, published 2006).

Columns and labels:
[1] = tested on: choroidal neovascularization (CNV) lesions; experiment: Targeted photodynamic therapy of laser-induced CNV lesions in rats (fluorescein angiography); format: in vivo, Norway-Brown rats
Procedure: CNV lesions were induced by laser photocoagulation of the retina in both eyes of Norway-Brown rats. Group 1: one eye received an intravitreal injection of 10 ul verteporfin conjugated to targeting molecule, and the other eye was used as a control. One hour later some of the lesions were treated with 690 nm laser light, while the other lesions were not irradiated. Group 2: one eye received iv. injection of 0.5 to 1 mg/m^2 verteporfin conjugated with targeting molecule. 15, 30 or 60 minutes later some of the lesions were treated with 690 nm laser light, while the other lesions were not irradiated. The lesions were examined by fluorescein angiography 1, 7 and 14 days later to assess the efficacy of targeted photodynamic therapy. In the case of intravitreal treatment with the same dosage, the effects of targeted photodynamic therapy lasted at least seven days. While there is no effect of PDT in the case of intravitreal injection of free verteporfin, the effects of targeted photodynamic therapy last even longer than 14 days, and the dosage of verteporfin in targeted photodynamic therapy is only 16% as compared to regular PDT verteporfin.
CNV lesions were induced by laser photocoagulation of the retina in both eyes of Norway-Brown rats. Choroidal neovascularization was induced by photocoagulating the posterior pole of rats with argon green laser using a slit lamp and a fundus contact lens to deliver 200-700 mW power for 0.1 second to a 50 μm spot. The power was adjusted to produce a blister or small hemorrhage. If no bleeding was observed, an additional laser-induced lesion was produced next to the first spot. Neovascular membranes usually develop within 2 weeks.
After 4 weeks, FVII-verteporfin conjugate (fVIIPD) at doses of 0.5 or 1 mg/m^2 was injected intravenously into the tail vein of the rats. Some of the CNV lesions were irradiated with 689 nm laser for 83 seconds at 15, 30 or 60 minutes after intravenous injection, while the other lesions were not irradiated (no light controls). Control rats were intravenously injected with Verteporfin (6.0 mg/m2) and laser irradiation was done 15 minutes later. The lesions were examined by fundus photographs and fluorescein angiography 1, 7 and 14 days later to assess the efficacy of ITPT. Choroidal veovascular membranes were treated by intravitreal injection of Verteporfin attached to targeting molecules that bind selectively to the endothelial cells of pathologic vessels. The photosensitizer was activated with an opal laser. A similar experiment was performed by intravitreal injection of fVII-targeted verteporfin.

[2] = molecular target: T1, Tissue Factor on the tumor cells (human breast cancer cells) (Homo sapiens, UniProt P13726); experiment: Binding to human breast cancer cells expressing TF by flow cytometry; conditions: conjugated compared with non-conjugated molecule
T1 construct: Human Tumor Cells Expressing TF; endogenous in cells
Procedure: mfVIIP was conjugated to verteporfin using the procedure described above. The binding activity of the conjugate to human breast cancer cells was tested by flow cytometry

T1 sequence (P13726 33-295): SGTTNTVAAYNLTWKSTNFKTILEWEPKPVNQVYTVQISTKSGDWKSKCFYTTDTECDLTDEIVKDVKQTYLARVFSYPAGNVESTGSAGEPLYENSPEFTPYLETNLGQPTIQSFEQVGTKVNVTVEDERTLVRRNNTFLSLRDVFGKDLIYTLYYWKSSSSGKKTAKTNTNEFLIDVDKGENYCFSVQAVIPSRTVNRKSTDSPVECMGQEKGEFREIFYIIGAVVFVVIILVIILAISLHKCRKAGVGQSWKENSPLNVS

binding activity to human breast cancer cells [2]	Molecule	effect of PDT ([1]; intravitreal injection, same dosage)	blood vessel leakage ([1]; intravitreal injection followed by laser activation, at 7 days)	duration of effects of targeted photodynamic therapy ([1]; intravitreal treatment, 690 nm laser light)	duration of effects of targeted photodynamic therapy ([1]; route not stated in the sentence (apparently iv 0.5 to 1 mg/m^2), verteporfin dosage only 16% of regular PDT)
–	verteporfin [reference compound]	no effect	–	–	–
identical	mfVIIPD: verteporfin conjugated via EDC to mfVIIP protein (mouse factor VII with K341A mutation) (conjugate, UniProt P70375 1-446, looked up, variant K341A, verteporfin conjugate; S-peptide and His6 tags) MVPQAHGLLLLCFLLQLQGPLGTAVFITQEEAHGVLHRQRRANSLLEELWPGSLERECNEEQCSFEEAREIFKSPERTKQFWIVYSDGDQCASNPCQNGGTCQDHLKSYVCFCLLDFEGRNCEKSKNEQLICANENGDCDQYCRDHVGTKRTCSCHEDYTLQPDEVSCKPKVEYPCGRIPVVEKRNSSSRQGRIVGGNVCPKGECPWQAVLKINGLLLCGAVLLDARWIVTAAHCFDNIRYWGNITVVMGEHDFSEKDGDEQVRRVTQVIMPDKYIRGKINHDIALLRLHRPVTFTDYVVPLCLPEKSFSENTLARIRFSRVSGWGQLLDRGATALELMSIEVPRLMTQDCLEHAKHSSNTPKITENMFCAGYMDGTKDACAGDSGGPHATHYHGTWYLTGVVSWGEGCAAIGHIGVYTRVSQYIDWLVRHMDSKLQVGVFRLPLL	–	completely stopped blood vessel leakage	at least seven	> 14 days
identical	mfVIIP: mouse factor VII with K341A mutation, ribonuclease S-peptide and 6 Histidines, produced in CHO cells (protein, UniProt P70375 1-446, looked up, variant K341A, S-peptide and His6 tags, mouse factor VII with K341A mutation, ribonuclease S-peptide and 6 Histidines, produced in CHO cells) MVPQAHGLLLLCFLLQLQGPLGTAVFITQEEAHGVLHRQRRANSLLEELWPGSLERECNEEQCSFEEAREIFKSPERTKQFWIVYSDGDQCASNPCQNGGTCQDHLKSYVCFCLLDFEGRNCEKSKNEQLICANENGDCDQYCRDHVGTKRTCSCHEDYTLQPDEVSCKPKVEYPCGRIPVVEKRNSSSRQGRIVGGNVCPKGECPWQAVLKINGLLLCGAVLLDARWIVTAAHCFDNIRYWGNITVVMGEHDFSEKDGDEQVRRVTQVIMPDKYIRGKINHDIALLRLHRPVTFTDYVVPLCLPEKSFSENTLARIRFSRVSGWGQLLDRGATALELMSIEVPRLMTQDCLEHAKHSSNTPKITENMFCAGYMDGTKDACAGDSGGPHATHYHGTWYLTGVVSWGEGCAAIGHIGVYTRVSQYIDWLVRHMDSKLQVGVFRLPLL	–	–	–	–
